Test results as given in the supplement of paper PMC10567573.
± gives the standard deviation.

Experiment: protein stability index of a GFP-peptide fusion (GPS, HEK-293T) (PSI 1-6); higher = more stable
[1] = treatment: DMSO, c terminus: a fixed tail appended
[2] = treatment: MLN4924 1 uM, 8 h, c terminus: a fixed tail appended
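Further: 24-mer peptide tiles fused after GFP, lentivirally expressed, FACS-sorted into six equal bins by GFP/DsRed ratio, decoded by Illumina sequencing, PSI is the read-weighted mean bin number.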

| Sequence | protein stability index [1] | protein stability index [2] | protein stability index (treatment: DMSO, c terminus: native) | protein stability index (treatment: MLN4924 1 uM, 8 h, c terminus: native) |
| --- | --- | --- | --- | --- |
| PENGEIKPASKPAGSSHTPSSQSS [ELOA2] | 5.43 ± 0.25 | 5.62 ± 0.067 |  |  |
| GNYMEAKSVLIPVYGVSKETFLSF [RHOBTB3] | 2.69 ± 0.53 | 2.31 ± 0.34 |  |  |
| FKKHDADKVGLITLSDWAAAVESV [PPEF2] |  | 2.64 ± 0.46 |  |  |
| LPTDAVDCMSRELVSLTSRNPDQR [FBXO34] | 4.85 ± 0.25 | 4.9 ± 0.17 |  |  |
| SRESSKPRAVLKPRRVCVGGKRRR [PPP2R2C] | 4.94 ± 0.33 | 4.87 ± 0.19 |  |  |
| ALERRRRALQEEERAAAQARRELQ [ZBED3] | 5.18 ± 0.12 | 4.86 ± 0.19 |  |  |
| MYASSAPPSEPVPSLEDISCNTWP [TBX5] | 3.95 ± 0.17 | 3.97 ± 0.22 |  |  |
| HGWLRPEMRTKEQILELLVLEQFL [ZNF263] | 2.46 ± 0.47 | 2.61 ± 0.43 |  |  |
| EKILRELSEEEEDEEEEEEEEEEG [KCNA4] | 5.65 ± 0.2 | 5.69 ± 0.17 |  |  |
| VGKTRLICARACNTTLTQYQLLAT [RHOBTB1] | 2.18 ± 0.35 | 2.21 ± 0.12 |  |  |
| IIGDYFSDQDPRVRTAAIKAMLQL [INTS4] | 2.19 ± 0.28 | 2.33 ± 0.2 |  |  |
| KCLYYLYATLDLNAVKYVSNIKFC [PDS5B] | 3.06 ± 0.41 | 2.75 ± 0.78 |  |  |
| VELVNAACNFEPHESFFSLFSDPR [ZER1] | 2.45 ± 0.13 | 2.54 ± 0.2 |  |  |
| MKDSMSAAEVGTGQYATTKGISQT [EPB41L3] | 4.75 ± 0.094 | 4.78 ± 0.44 |  |  |
| VSQWYELVVFTASMEIYGSAVADK [CTDNEP1] | 3.26 ± 0.36 | 3.17 ± 0.48 |  |  |
| IYRKYRKLIESELSYFVIVYSVM [FBXO39] |  |  | 2.87 ± 0.62 | 2.89 ± 0.44 |
| RDWWNSTSFSNYYRTWNVVVHDWL [SOAT2] | 2.35 ± 0.34 | 2.26 ± 0.21 |  |  |
| LERKCEKRSVYIDARDEELEKDTM [ZC3H15] | 4.93 ± 0.49 | 4.9 ± 0.075 |  |  |
| LRRKTPRHKQPTLLMVRASRRSGK [C6orf223] | 3.61 ± 0.13 | 4.04 ± 0.22 |  |  |
| IIQFVESGDDKNSNYFSMDSMEGK [TRIM29] | 3.46 ± 0.24 | 3.71 ± 0.29 |  |  |
| VVYVKHQAQIDQYLGLVRTHINAV [RTN1] | 2.22 ± 0.82 | 2.52 ± 0.48 |  |  |
| LSNLVQHILKKYYGNGMRKSPEMP [RTP4] | 2.43 ± 0.35 | 2.28 ± 0.11 |  |  |

| Sequence | protein stability index [1] | protein stability index [2] | protein stability index (treatment: DMSO, c terminus: native) | protein stability index (treatment: MLN4924 1 uM, 8 h, c terminus: native) |
| --- | --- | --- | --- | --- |
| FDMSRYSSSGYSSAEINQDLNIQL [FAM219A] | 3.06 ± 0.27 | 3.12 ± 0.18 |  |  |
| SFRAGSKGLSGGFGSRSLYSLGGV [KRT71] | 2.12 ± 0.21 | 2.77 ± 0.33 |  |  |
| TKCEYMLNSMPKRLCLVCGDIASG [ESRRG] | 2.32 ± 0.29 | 2.13 ± 0.12 |  |  |
| KSKHAPRGTHLWEFIRDILIHPEL [ELF3] | 2.6 ± 0.75 | 2.26 ± 0.36 |  |  |
| ATKPSHWCSVAYWEHRTRVGRLYA [SMAD6] | 2.62 ± 0.55 | 1.91 ± 0.17 |  |  |
| VTPFDHNIVNLLTTCSTPLLNSPP [AUP1] | 2.42 ± 0.12 | 2.48 ± 0.39 |  |  |
| HFGWYLGWGDCVWLPYLYTLQGLY [DHCR7] | 3.09 ± 0.84 | 3.29 ± 0.11 |  |  |
| PPTYPTKYFGCELGAQTQFDVKND [EIF5] | 4.35 ± 0.17 | 4.494 ± 0.038 |  |  |
| TAIFYTLMTCEMLNRRNGSLRIAL [EDNRA] | 2.85 ± 0.21 | 3.15 ± 0.42 |  |  |
| SNDFKSVLEVRTENLKQQRSRREQ [STX5] | 4.9 ± 0.21 | 4.92 ± 0.31 |  |  |
| TRGFLRSPSSDLDTDAEGDDFELL [RETREG3] | 5.24 ± 0.17 | 5.29 ± 0.2 |  |  |
| KGPGAPQYPAGTQGEQLEVPERLL [SPSB2] | 4.93 ± 0.15 | 4.72 ± 0.26 |  |  |
| TTTDHSSNPGPVPGSSSGPVLGSS [SPAG8] | 5.08 ± 0.16 | 5.13 ± 0.09 |  |  |
| EQLQGFNTRVRELAQAAGFAPQTG [DNAAF3] | 3.66 ± 0.28 | 3.91 ± 0.67 |  |  |
| CGGYNGEVILGDIWKLNLQTFQWV [KLHDC10] | 2.44 ± 0.85 | 2.11 ± 0.71 |  |  |
| GPGDSQGRKRRQTSMTDFYHSKRR [CDKN1A] | 3.62 ± 0.42 | 4.78 ± 0.19 |  |  |
| PQRPRSAPRTSSCAERLQSEEQVS [FCHO1] | 4.85 ± 0.39 | 4.9 ± 0.24 |  |  |
| LGFGSAKEAVTGSRLGQGIGPIHL [LOXL2] | 2.7 ± 0.26 | 2.64 ± 0.073 |  |  |
| LQILAYGNQESKLIILASGGPQAL [CTNNB1] | 2.89 ± 1.4 | 2.22 ± 1.1 |  |  |
| CNDGRIVIWDFLTRGIAKIISAHI [RBBP5] | 3.03 ± 0.42 | 2.66 ± 0.41 |  |  |
| TIVSCTPVHLVDKLPLPSTLRSHL [RAB40A] | 2.32 ± 0.091 | 2.28 ± 0.15 |  |  |
| DVGRYIDHYAAIKKAWDDLKKYLE [FBXO3] | 2.31 ± 0.34 | 2.97 ± 0.52 |  |  |

| Sequence | protein stability index [1] | protein stability index [2] | protein stability index (treatment: DMSO, c terminus: native) | protein stability index (treatment: MLN4924 1 uM, 8 h, c terminus: native) |
| --- | --- | --- | --- | --- |
| DIKRLLVNFMYLQSLLQPKSSSVD [SMG5] | 2.97 ± 0.54 | 3.08 ± 0.51 |  |  |
| EDRLSLKFLPSSEEDNDDAKILPS [DRICH1] | 5.34 ± 0.23 | 5.33 ± 0.11 |  |  |
| FFTLDLEHIADALRAIDFGTDEEE [TRIM63] | 3.9 ± 0.63 | 4.27 ± 0.26 |  |  |
| REALVLRSVRVRLLLSFWKETDPL [PLD5] | 2.58 ± 1.1 | 2.38 ± 0.39 |  |  |
| ASDLSSEEGWRLFKIDKEYLLKMA [SAT1] | 2.42 ± 0.17 | 2.6 ± 0.33 |  |  |
| TLCDVTLRVEQKDFPAHRIVLAAC [KLHL12] | 2.21 ± 0.52 | 1.83 ± 0.53 |  |  |
| EGDLPQMEVGSGSRELSLRPSRSG [EID1] | 5.07 ± 0.31 | 5.36 ± 0.35 |  |  |
| GQDTFCQGKADGLYPNPRERSSFY [CHIT1] | 3.71 ± 0.28 | 3.57 ± 0.35 |  |  |
| SQKGCLALSLLELLGFNLTFVFLA [CLCN6] | 3.15 ± 0.42 | 3.03 ± 0.42 |  |  |
| LIKFQVGLKKLNLHEEEHVLLMAI [VDR] | 2.8 ± 0.62 | 2.73 ± 0.78 |  |  |
| KFLMARKFDVLRAIELFHSYRETR [PTPN9] | 2.29 ± 0.54 | 2.15 ± 0.15 |  |  |
| LLDFMCRIIPNFYPPLEGHVRQGV [INTS3] | 3.31 ± 0.42 | 2.84 ± 0.41 |  |  |
| DSLGGSQEMVQRPQPHRNRAGLDL [TRAF3IP2] | 4.87 ± 0.23 | 4.58 ± 0.41 |  |  |
| TLRGTGATADFADVADDFENYHKL [NETO1] | 4.4 ± 0.22 | 4.49 ± 0.084 |  |  |
| AAAALFGGKKDKARYIDTHNRVSK [PLK2] | 3.37 ± 0.22 | 3.14 ± 0.39 |  |  |
| YEKAYEGGSELGGWSLGRWTHDGI [CPXM2] | 2.49 ± 0.82 | 2.69 ± 0.16 |  |  |
| TAPRTLPSCLACNRQCLCSAESMV [SPRY1] | 2.75 ± 0.34 | 2.59 ± 0.48 |  |  |
| GGRLENQKPRGLEGGVLRGSKLEK [ZSWIM9] | 4.91 ± 0.68 | 4.9 ± 0.65 |  |  |
| ILKRRYYRQHCTLELGSYIKDLSV [CTDNEP1] | 2.46 ± 0.56 | 2.25 ± 0.66 |  |  |
| QLHHVVYCFMIAYGTQRTLILESQ [FUT8] | 3.12 ± 0.55 | 3.17 ± 0.36 |  |  |
| YHSPELTTPPGHGTLDNSKSMKPY [NEUROD6] | 2.87 ± 0.65 | 3.7 ± 0.67 |  |  |
